The values below come from patent US20030129189A1, “Tumor necrosis factor-gamma” (priority 1994, published 2003).

Sequences and labels used below:
T1: FLAG-tagged soluble TNF-gamma-beta (aa 72-251) (human, UniProt O95150 72-251)
T1 construct: also called FLAG-TL1β; FLAG-TNF-gamma-beta; not shown: The N-terminal FLAG tag (pFLAG-CMV-1 vector) and any vector linker
T1 sequence: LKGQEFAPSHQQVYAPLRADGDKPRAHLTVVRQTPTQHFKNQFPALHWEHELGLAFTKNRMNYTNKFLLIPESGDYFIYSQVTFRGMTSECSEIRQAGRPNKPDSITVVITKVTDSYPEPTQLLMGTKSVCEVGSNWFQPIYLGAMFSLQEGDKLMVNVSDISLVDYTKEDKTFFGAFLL

T2: Fc-fusion form of the extracellular domain of DR6 (UniProt O75509 42-349, limits assumed)
T2 construct: extracellular domain; not shown: Fc part of the fusion
T2 sequence (looked up): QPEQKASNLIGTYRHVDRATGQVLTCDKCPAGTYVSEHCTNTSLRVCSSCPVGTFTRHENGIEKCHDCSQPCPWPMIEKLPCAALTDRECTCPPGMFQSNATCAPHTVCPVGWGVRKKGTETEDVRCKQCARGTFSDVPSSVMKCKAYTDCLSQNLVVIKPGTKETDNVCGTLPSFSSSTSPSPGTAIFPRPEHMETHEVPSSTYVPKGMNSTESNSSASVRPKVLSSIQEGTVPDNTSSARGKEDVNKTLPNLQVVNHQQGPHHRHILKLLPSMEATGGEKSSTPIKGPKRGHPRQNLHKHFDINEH

T3: Fc-fusion form of the extracellular domain of OPG (UniProt O00300 22-401, limits assumed)
T3 construct: extracellular domain; not shown: Fc part of the fusion
T3 sequence (looked up): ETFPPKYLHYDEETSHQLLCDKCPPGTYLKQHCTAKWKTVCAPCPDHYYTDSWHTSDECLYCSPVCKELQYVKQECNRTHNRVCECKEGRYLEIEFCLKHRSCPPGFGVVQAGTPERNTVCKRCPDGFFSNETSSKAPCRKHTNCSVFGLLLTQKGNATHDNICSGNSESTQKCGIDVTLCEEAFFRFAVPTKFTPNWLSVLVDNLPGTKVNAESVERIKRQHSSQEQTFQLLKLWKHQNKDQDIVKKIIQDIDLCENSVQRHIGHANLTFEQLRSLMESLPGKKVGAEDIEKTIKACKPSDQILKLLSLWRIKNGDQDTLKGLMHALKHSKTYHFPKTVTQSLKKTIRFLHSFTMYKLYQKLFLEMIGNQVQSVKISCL

T4: non-tagged form of TR6 (UniProt O95407 30-300)
T4 construct: also called DcR3
T4 sequence (looked up): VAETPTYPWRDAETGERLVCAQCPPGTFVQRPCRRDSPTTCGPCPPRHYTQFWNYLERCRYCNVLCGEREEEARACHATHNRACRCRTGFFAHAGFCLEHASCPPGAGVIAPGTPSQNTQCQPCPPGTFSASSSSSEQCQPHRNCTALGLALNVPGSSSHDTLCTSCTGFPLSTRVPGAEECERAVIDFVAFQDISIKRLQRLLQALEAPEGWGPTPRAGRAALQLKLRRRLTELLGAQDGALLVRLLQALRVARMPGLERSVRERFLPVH

T5: recombinant, untagged TNF-gamma-beta protein (aa 72-251) (human, UniProt O95150 72-251)
T5 construct: they are put here; also called TL1β; non-tagged TNF-gamma-beta
T5 sequence: T1 sequence

B1: TACI-Fc (extracellular domain of human TACI, aa 1-159, fused to the Fc domain of human IgG1) (Fc fusion, UniProt O14836 1-159, looked up)
chain: MSGLGRSRRGGRSRVDQEERFPQGLWTGVAMRSCPEEQYWDPLLGTCMSCKTICNHQSQRTCAAFCRSLSCRKEQGKFYDHLLRDCISCASICGQHPKQCAYFCENKLRSPVNLPPELRRQRSGEVENNSDNSGRYQGLEHRGSEASPALPGLKLSADQ
notes: range 1-159; also called TAC1; not shown: Fc domain of human IgG1, fused in-frame to the C-terminus of the receptor part
B2: soluble DR3: extracellular domain of DR3 locally produced by transfected MCA 38 cells (protein, UniProt Q93038 25-199, looked up)
extracellular domain: QGGTRSPRCDCAGDFHKKIGLFCCRGCPAGHYLKAPCTEPCGNSTCLVCPQDTFLAWENHHNSECARCQACDEQASQVALENCSAVADTRCGCKPGWFVECQVSQCVSSSPFYCQPCLDCGALHRHTRLLCSRRDTDCGTCLPGFYEHGDGCVSCPTSTLGSCPERCAAVCGWRQ
modifications: extracellular domain
notes: extracellular domain of DR3 locally produced by transfected MCA 38 cells
B3: full length TNF-gamma-beta on the cell surface (HEK293F stable transfectants; transfected cells) (ligand)
chain: MAEDLGLSFGETASVEMLPEHGSCRPKARSSSARWALTCCLVLLPFLAGLTTYLLVSQLRAQGEACVQFQALKGQEFAPSHQQVYAPLRADGDKPRAHLTVVRQTPTQHFKNQFPALHWEHELGLAFTKNRMNYTNKFLLIPESGDYFIYSQVTFRGMTSECSEIRQAGRPNKPDSITVVITKVTDSYPEPTQLLMGTKSVCEVGSNWFQPIYLGAMFSLQEGDKLMVNVSDISLVDYTKEDKTFFGAFLL
notes: also called TNF-gamma-beta expressing cells
B4: BCMA-Fc (Fc fusion, human, UniProt Q02223 1-54, looked up)
chain: MLQMAGQCSQNEYFDSLLHACIPCQLRCSSNTPPLTCQRYCNASVTNSVKGTNA
notes: Control surface of the BIAcore analysis; not shown: Fc part of the fusion; not described for this receptor

The target in assay [1] is T1, FLAG-tagged soluble TNF-gamma-beta (aa …). The assay can be described thus: co-immunoprecipitation with protein A-Sepharose, anti-Flag M2 blot. The text has this:
The beads were then precipitated and washed extensively with PBST buffer (PBS, 0.5% Triton X-100) before boiled in SDS-sample buffer. Proteins were resolved on 4-20% Tris-Glycine gels (NOVEX), transferred to nitrocellulose membranes, and blotted with anti-Flag M2 monoclonal antibody (1 microgram/ml, Sigma) andhorseradish peroxidase (HRP)-conjugated goat anti-mouse IgG antibody (0.5 microgram/ml).

In assay [2] the target is B3. The assay can be described thus: flow cytometry on HEK293F cells expressing full length TNF-gamma-beta. The procedure: (§1) TR6 has been previously described as a decoy receptor (Pitti et al., Nature 396:699-703 (1998); Yu et al., J. Biol. Chem. 274:13733-6 (1999)) capable of competing with Fas and HveA for binding of FasL and LIGHT, respectively.
(§2) One million cells, in 0.1 ml of FACS buffer (PBS, 0.1% BSA, 0.1% NaN₃), were incubated with 0.1-1 microgram of protein or antibody at RT for 15 min. The cells were washed with 3 ml of FACS buffer, reacted with biotinylated primary antibody, and stained with PE-conjugated secondary antibody at RT for 15 min. Cells were then washed again, resuspended in 0.5 microgram/ml of propidium iodide, and live cells were gated and analyzed on a FACScan using the CellQuest software (BD Biosciences).

Assay [3] relates to MC-38 murine colon cancer. Briefly: In vivo tumorigenicity assay, syngeneic MC-38 colon cancer. The arrangement: species or system C57BL6/6 mice. Conditions: local production by transfected MCA 38 cells, 1×10^6 cells/mouse. The procedure: [The full-length TNF-gamma and extracellular domain of DR3 was cloned into pcDNA3 expression vector and transfected to MCA 38 cells, respectively. After selection and cloning, three clones from each constructs were picked for tumorigenicity study. MCA 38 cells (1×10^6 cells/mouse) expressing TNF-gamma or DR3 extracellular domain were injected into C57BL6/6 mice. The tumor size was assessed by measuring perpendicular diameters with a caliper and calculated by multiplying the measurements of diameters in two dimensions. Data are represented as the mean +/−SD of 6 mice in each group.] It is clear that most immune cells and cancer cells can express more than one TNF receptor (even more than one death receptor) and ligand superfamily member. […] Moreover, the expression of these ligands and receptors may differ at the level of individual cell types within tissues and the expression level on the same cell type may also differ.
The full length TNF-gamma and extracellular domain of DR3 was cloned into pcDNA3 expression vector (Invitrogen, Carlsbad, Calif.) and transfected to MCA 38 cells, respectively. […] Mice then were randomized and tumors were measured twice weekly. The tumor size was assessed by measuring perpendicular diameters with a caliper and calculated by multiplying the measurements of diameters in two dimensions. […]

Assay [4] concerns the target T2, Fc-fusion form of the extracellular …. Briefly: flow cytometry on HEK293F cells expressing full length TNF-gamma-beta. As to the method:
as §1, §2
Background: Flow cytometry measures light scatter and fluorescence of single cells or particles in a stream.

Assay [5] has as its target T3, Fc-fusion form of the extracellular …. The description is as above. As to the method:
as §1, §2

Assay [6] has as its target T4, non-tagged form of TR6. Briefly: competition flow cytometry on HEK293F cells expressing TNF-gamma-beta; competitor of DR3-Fc. The procedure: as §1, §2
Assay [7] deals with T5, recombinant, untagged TNF-gamma-beta …. Briefly: BIAcore 3000, TNFR-Fc immobilised on CM5 chip, TNF-gamma-beta in flow. As to the method:
TNFR-Fc were covalently immobilized to the BIAcore sensor chip (CM5 chip) via amine groups using N-ethyl-N′-(dimethylaminopropyl) carbodiimide/N-hydroxysuccinimide chemistry. […] The amount of bound protein was determined during washing of the flow cell with HBS buffer (10 mM HEPES, pH 7.4, 150 mM NaCl, 3.4 mM EDTA, 0.005% Surfactant P20). The flow cell surface was regenerated by displacing bound protein by washing with 20 microliters of 10 mM glycine-HCl, pH 2.3. For kinetic analysis, the on and off rates were determined using the kinetic evaluation program in BIAevaluation 3 software using a 1:1 binding model and the global analysis method.
(Surface plasmon resonance follows binding to a sensor surface in real time, without labels.)

For B1, the binding result in assay [1] and in assay [2] was “no binding” each time.

B2: the tumor growth entry in assay [3] is recorded as “promotes tumor growth”.

In the case of B3, the binding result in assay [4] is on record as “no binding”; in assay [5], “no binding”; in assay [6], “binds”.

Turning to B4, the binding result in assay [7] was “no binding (tested: 3-370 nM)”.
